Reference: the RNAGym collection of RNA variant scans (doi:10.7554/elife.80360)

B1: CPEB3 Ribozyme (parent)
chain: GGGGGCCACAGCAGAAGCGUUCACGUCGCGGCCCCUGUCAGAUUCUGGUGAAUCUGCGAAUUCUGCUGU

Variants of: B1
Test: self-cleavage, relative activity (ratio to wild type); higher = more cleavage; co-transcriptional

Variant	self-cleavage
GGGGGCCACAGCAGAAGCGUUCACGUCGCGGCCCCUGUCAGAUUCUGGUGAAUCUGGGCAUUCUGCUGU	0.3
GGGGGCCACAGCAGAAGCGUUCACGUCGCGGCCCCUGUCAGAUUCUGGUGAAUCUGCAAAUUCUGCGGU	0.988
GGGGGCCACAGCAGAAGCGUUCACGUCGCGGCCCCUGUCAGAUUCUGGUGAAUCUGAGAAUUCUUCUGU	0.399
GGGGGCCACAGCAGAAGCGUUCACGUCGCGGCCCCUGUCAGAUUCUGGUGAAUCUGAGAAUUCUCCUGU	0.4
GGGGGCCACAGCAGAAGCGUUCACGUCGCGGCCCCUGUCAGAUUCUGGUGAAUCUUCGUAUUCUGCUGU	0.672
GGGGGCCACAGCAGAAGCGUUCACGUCGCGGCCCCUGUCAGAUUCUGGUGAAUCUUCGCAUUCUGCUGU	0.514
GGGGGCCACAGCAGAAGCGUUCACGUCGCGGCCCCUGUCAGAUUCUGGUGAAUCUGGGAAUUUUGCUGU	0.356
GGGGGCCACAGCAGAAGCGUUCACGUCGCGGCCCCUGUCAGAUUCUGGUGAAUCUGGGAAUUGUGCUGU	0.285
GGGGGCCACAGCAGAAGCGUUCACGUCGCGGCCCCUGUCAGAUUCUGGUGAAUCUGCCAACUCUGCUGU	0.844
GGGGGCCACAGCAGAAGCGUUCACGUCGCGGCCCCUGUCAGAUUCUGGUGAAUCUGAGAAUUCGGCUGU	0.384
GGGGGCCACAGCAGAAGCGUUCACGUCGCGGCCCCUGUCAGAUUCUGGUGAAUCUGAGAAUUCUGCAGU	0.275
GGGGGCCACAGCAGAAGCGUUCACGUCGCGGCCCCUGUCAGAUUCUGGUGAAUCUGAGAAUUCUGCCGU	0.25
GGGGGCCACAGCAGAAGCGUUCACGUCGCGGCCCCUGUCAGAUUCUGGUGAAUCUUCGAAUUCUGCAGU	0.943
GGGGGCCACAGCAGAAGCGUUCACGUCGCGGCCCCUGUCAGAUUCUGGUGAAUCUUCGAAUUCUGCCGU	0.894
GGGGGCCACAGCAGAAGCGUUCACGUCGCGGCCCCUGUCAGAUUCUGGUGAAUCUUCGAAUUCUGCGGU	0.945
GGGGGCCACAGCAGAAGCGUUCACGUCGCGGCCCCUGUCAGAUUCUGGUGAAUCUGAGCAUUCUGCUGU	0.335
GGGGGCCACAGCAGAAGCGUUCACGUCGCGGCCCCUGUCAGAUUCUGGUGAAUCUGGGAAUCCUGCUGU	0.288
GGGGGCCACAGCAGAAGCGUUCACGUCGCGGCCCCUGUCAGAUUCUGGUGAAUCUGGGAAUGCUGCUGU	0.448
GGGGGCCACAGCAGAAGCGUUCACGUCGCGGCCCCUGUCAGAUUCUGGUGAAUCUUCGAACUCUGCUGU	0.383
GGGGGCCACAGCAGAAGCGUUCACGUCGCGGCCCCUGUCAGAUUCUGGUGAAUCUUCGAAGUCUGCUGU	0.548
GGGGGCCACAGCAGAAGCGUUCACGUCGCGGCCCCUGUCAGAUUCUGGUGAAUCUGCAAAUUCGGCUGU	0.955
GGGGGCCACAGCAGAAGCGUUCACGUCGCGGCCCCUGUCAGAUUCUGGUGAAUCUGAGAAAUCUGCUGU	0.428
GGGGGCCACAGCAGAAGCGUUCACGUCGCGGCCCCUGUCAGAUUCUGGUGAAUCUGAGAAGUCUGCUGU	0.402
GGGGGCCACAGCAGAAGCGUUCACGUCGCGGCCCCUGUCAGAUUCUGGUGAAUCUGCCAAUUCUGUUGU	1.02
GGGGGCCACAGCAGAAGCGUUCACGUCGCGGCCCCUGUCAGAUUCUGGUGAAUCUGCAAAUACUGCUGU	0.939
GGGGGCCACAGCAGAAGCGUUCACGUCGCGGCCCCUGUCAGAUUCUGGUGAAUCUGCAAAUGCUGCUGU	0.884

Variant	self-cleavage
GGGGGCCACAGCAGAAGCGUUCACGUCGCGGCCCCUGUCAGAUUCUGGUGAAUCUGGGAAUUCUGCUGG	0.473
GGGGGCCACAGCAGAAGCGUUCACGUCGCGGCCCCUGUCAGAUUCUGGUGAAUCUGGGAAUUCUGCUGA	0.381
GGGGGCCACAGCAGAAGCGUUCACGUCGCGGCCCCUGUCAGAUUCUGGUGAAUCUGGGACUUCUGCUGU	0.258
GGGGGCCACAGCAGAAGCGUUCACGUCGCGGCCCCUGUCAGAUUCUGGUGAAUCUUCGAAUUCUGCUAU	1.05
GGGGGCCACAGCAGAAGCGUUCACGUCGCGGCCCCUGUCAGAUUCUGGUGAAUCUUCGAAUUCUGCUCU	0.963
GGGGGCCACAGCAGAAGCGUUCACGUCGCGGCCCCUGUCAGAUUCUGGUGAAUCUGCAAAUUCUCCUGU	0.619
GGGGGCCACAGCAGAAGCGUUCACGUCGCGGCCCCUGUCAGAUUCUGGUGAAUCUGCAAAUUCUUCUGU	0.743
GGGGGCCACAGCAGAAGCGUUCACGUCGCGGCCCCUGUCAGAUUCUGGUGAAUCUUCGACUUCUGCUGU	0.368
GGGGGCCACAGCAGAAGCGUUCACGUCGCGGCCCCUGUCAGAUUCUGGUGAAUCUGUGAAUUCUGUUGU	0.42
GGGGGCCACAGCAGAAGCGUUCACGUCGCGGCCCCUGUCAGAUUCUGGUGAAUCUGCCAAUUCUGCGGU	1.01
GGGGGCCACAGCAGAAGCGUUCACGUCGCGGCCCCUGUCAGAUUCUGGUGAAUCUGCAAAUUCUGCUUU	0.962
GGGGGCCACAGCAGAAGCGUUCACGUCGCGGCCCCUGUCAGAUUCUGGUGAAUCUGCAAAUUCUGCUCU	0.978
GGGGGCCACAGCAGAAGCGUUCACGUCGCGGCCCCUGUCAGAUUCUGGUGAAUCUUCGAAUUCUACUGU	0.47
GGGGGCCACAGCAGAAGCGUUCACGUCGCGGCCCCUGUCAGAUUCUGGUGAAUCUUCGAAUUCUUCUGU	0.468
GGGGGCCACAGCAGAAGCGUUCACGUCGCGGCCCCUGUCAGAUUCUGGUGAAUCUGAGAAUACUGCUGU	0.32
GGGGGCCACAGCAGAAGCGUUCACGUCGCGGCCCCUGUCAGAUUCUGGUGAAUCUGACAAUUCUGCUGU	0.397
GGGGGCCACAGCAGAAGCGUUCACGUCGCGGCCCCUGUCAGAUUCUGGUGAAUCUGCAAAUUAUGCUGU	0.748
GGGGGCCACAGCAGAAGCGUUCACGUCGCGGCCCCUGUCAGAUUCUGGUGAAUCUGUGAAUUUUGCUGU	0.34
GGGGGCCACAGCAGAAGCGUUCACGUCGCGGCCCCUGUCAGAUUCUGGUGAAUCUGUGAAUUCUGCUGU	0.375
GGGGGCCACAGCAGAAGCGUUCACGUCGCGGCCCCUGUCAGAUUCUGGUGAAUCUGGGAAUUCUGCUGU	0.354
GGGGGCCACAGCAGAAGCGUUCACGUCGCGGCCCCUGUCAGAUUCUGGUGAAUCUGAGAAUUCUGCUGU	0.346
GGGGGCCACAGCAGAAGCGUUCACGUCGCGGCCCCUGUCAGAUUCUGGUGAAUCUGAGAAUUCUGCUCU	0.5
GGGGGCCACAGCAGAAGCGUUCACGUCGCGGCCCCUGUCAGAUUCUGGUGAAUCUGUGAAUUCUGCUCU	0.365
GGGGGCCACAGCAGAAGCGUUCACGUCGCGGCCCCUGUCAGAUUCUGGUGAAUCUGCCAUUUCUGCUGU	0.402
GGGGGCCACAGCAGAAGCGUUCACGUCGCGGCCCCUGUCAGAUUCUGGUGAAUCUGAGAGUUCUGCUGU	0.347
GGGGGCCACAGCAGAAGCGUUCACGUCGCGGCCCCUGUCAGAUUCUGGUGAAUCUGCUGAUUCUGCUGU	1.02

Variant	self-cleavage
GGGGGCCACAGCAGAAGCGUUCACGUCGCGGCCCCUGUCAGAUUCUGGUGAAUCUGCCAAUUCUGCUGC	1.07
GGGGGCCACAGCAGAAGCGUUCACGUCGCGGCCCCUGUCAGAUUCUGGUGAAUCUUCGAAUUCGGCUGU	0.753
GGGGGCCACAGCAGAAGCGUUCACGUCGCGGCCCCUGUCAGAUUCUGGUGAAUCUUCGAAUUCAGCUGU	0.612
GGGGGCCACAGCAGAAGCGUUCACGUCGCGGCCCCUGUCAGAUUCUGGUGAAUCUGUGAAUUCAGCUGU	0.392
GGGGGCCACAGCAGAAGCGUUCACGUCGCGGCCCCUGUCAGAUUCUGGUGAAUCUGUGAAUUCCGCUGU	0.556
GGGGGCCACAGCAGAAGCGUUCACGUCGCGGCCCCUGUCAGAUUCUGGUGAAUCUGUGAAAUCUGCUGU	0.406
GGGGGCCACAGCAGAAGCGUUCACGUCGCGGCCCCUGUCAGAUUCUGGUGAAUCUGUGAAUUCUGCUGC	0.554
GGGGGCCACAGCAGAAGCGUUCACGUCGCGGCCCCUGUCAGAUUCUGGUGAAUCUUAGAAUUCUGCUGU	0.291
GGGGGCCACAGCAGAAGCGUUCACGUCGCGGCCCCUGUCAGAUUCUGGUGAAUCUUUGAAUUCUGCUGU	0.322
GGGGGCCACAGCAGAAGCGUUCACGUCGCGGCCCCUGUCAGAUUCUGGUGAAUCUGCCAAUGCUGCUGU	0.965
GGGGGCCACAGCAGAAGCGUUCACGUCGCGGCCCCUGUCAGAUUCUGGUGAAUCUGCAAAUUCUGCUGC	1.06
GGGGGCCACAGCAGAAGCGUUCACGUCGCGGCCCCUGUCAGAUUCUGGUGAAUCUGUGAAUGCUGCUGU	0.327
GGGGGCCACAGCAGAAGCGUUCACGUCGCGGCCCCUGUCAGAUUCUGGUGAAUCUUCGAAUUCUGUUGU	0.872
GGGGGCCACAGCAGAAGCGUUCACGUCGCGGCCCCUGUCAGAUUCUGGUGAAUCUUCGAAUUCUGGUGU	0.552
GGGGGCCACAGCAGAAGCGUUCACGUCGCGGCCCCUGUCAGAUUCUGGUGAAUCUGUGCAUUCUGCUGU	0.376
GGGGGCCACAGCAGAAGCGUUCACGUCGCGGCCCCUGUCAGAUUCUGGUGAAUCUGCCAAUUCGGCUGU	0.893
GGGGGCCACAGCAGAAGCGUUCACGUCGCGGCCCCUGUCAGAUUCUGGUGAAUCUGGGAAUUCUGGUGU	0.39
GGGGGCCACAGCAGAAGCGUUCACGUCGCGGCCCCUGUCAGAUUCUGGUGAAUCUGGGAAUUCUGUUGU	0.333
GGGGGCCACAGCAGAAGCGUUCACGUCGCGGCCCCUGUCAGAUUCUGGUGAAUCUGCAAAUUCUGCUGU	0.965
GGGGGCCACAGCAGAAGCGUUCACGUCGCGGCCCCUGUCAGAUUCUGGUGAAUCUGCCAAUUCUGCUGU	0.985
GGGGGCCACAGCAGAAGCGUUCACGUCGCGGCCCCUGUCAGAUUCUGGUGAAUCUGCUAAUUCUGCUGU	0.994
GGGGGCCACAGCAGAAGCGUUCACGUCGCGGCCCCUGUCAGAUUCUGGUGAAUCUGGGAAUUCUGCUUU	0.365
GGGGGCCACAGCAGAAGCGUUCACGUCGCGGCCCCUGUCAGAUUCUGGUGAAUCUUCGAAUUCUGCUGG	1.02
GGGGGCCACAGCAGAAGCGUUCACGUCGCGGCCCCUGUCAGAUUCUGGUGAAUCUGAGAAUUCUGCUGC	0.499
GGGGGCCACAGCAGAAGCGUUCACGUCGCGGCCCCUGUCAGAUUCUGGUGAAUCUGCCAAUUCUCCUGU	0.703
GGGGGCCACAGCAGAAGCGUUCACGUCGCGGCCCCUGUCAGAUUCUGGUGAAUCUGUGAAUUCUUCUGU	0.375
